Values quoted from earlier work, collected in PMC3479961.

Experiments:
Assay in all cases: surface plasmon resonance
plasmin (Homo sapiens) = plasmin (Homo sapiens) (UniProt P00747)
[1] = target: plasminogen (Homo sapiens) (UniProt P00747)
tPA (Homo sapiens) = tPA (Homo sapiens) (UniProt P00750)
UniProt P00750, sequence (P00750 36-562): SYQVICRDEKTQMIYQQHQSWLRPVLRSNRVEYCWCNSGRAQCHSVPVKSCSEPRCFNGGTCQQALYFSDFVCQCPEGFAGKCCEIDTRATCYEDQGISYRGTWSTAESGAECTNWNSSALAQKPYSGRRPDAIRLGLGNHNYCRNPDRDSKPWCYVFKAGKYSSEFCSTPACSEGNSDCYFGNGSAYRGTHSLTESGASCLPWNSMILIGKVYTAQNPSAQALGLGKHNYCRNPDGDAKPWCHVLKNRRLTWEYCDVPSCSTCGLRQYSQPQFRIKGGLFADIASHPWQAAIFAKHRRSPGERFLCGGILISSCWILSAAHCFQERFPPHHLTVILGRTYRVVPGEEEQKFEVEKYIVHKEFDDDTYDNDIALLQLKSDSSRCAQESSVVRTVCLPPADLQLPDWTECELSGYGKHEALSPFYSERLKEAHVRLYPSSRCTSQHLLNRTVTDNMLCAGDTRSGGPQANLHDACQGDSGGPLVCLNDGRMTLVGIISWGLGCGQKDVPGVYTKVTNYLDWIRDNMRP

For S100A10 (from UniProt P60903), the Kd (plasmin (Homo sapiens)) is listed as 360 nM, the Kd [1] is listed as 1810 nM and the Kd (tPA (Homo sapiens)) is listed as 450 nM.
